Where “and” joins values, the source holds several entries; their conditions need not be identical. Equal values may be shown once.

For test [1], the target named is phalloidin-stabilized pyrene-labeled F-actin (rabbit) (UniProt P68135). Briefly: other fluorescence titration.
Test [2] addresses bovine cardiac ventricular β-myosin subfragment 1 (α-chymotryptic S1) (bovine). Briefly: stopped-flow fluorescence kinetics.

For the substance “bovine cardiac ventricular β-myosin subfragment 1 (α-chymotryptic S1) (domain or fragment)”, in test [1], the PFA fluorescence restored by MgATP, with Mava was determined as 84%; the PFA fluorescence restored by MgATP, with OM came to 65%; the decrease in pyrene fluorescence intensity at S1:actin 0.7:1 worked out at 46%; the stoichiometry N (commonly the number of molecules, sites or subunits per partner or assembly) came to 1 S1 per actin.

For the substance “phalloidin-stabilized pyrene-labeled F-actin (from UniProt P68135 1-377) (natural protein)”, the Kd (commonly a measure of binding affinity in units of concentration) in test [2] is 48 nM and 57 nM.

For the origin of these results see publication doi:10.1101/2020.09.16.300517.
